Laboratory results: patent US20110064751A1 (Hoffmann-La Roche, published 2011)

T1: Human TNC-A2 + avi-tag + his6-tag (human, biotinylated in vivo at the avi-tag)
T1 construct: also called hu TNC A2; A2 domain of human tenascin
T1 chain: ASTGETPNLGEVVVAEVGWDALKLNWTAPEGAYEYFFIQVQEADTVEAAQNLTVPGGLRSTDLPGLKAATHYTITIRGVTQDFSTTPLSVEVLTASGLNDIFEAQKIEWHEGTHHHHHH


Experiments:
[1] = molecular target: T2, Murine FAP ectodomain + poly-lys-tag + his6-tag (murine, UniProt P97321 27-761); experiment: first affinity maturation campaign: phage selections, ELISA and BIACORE kinetic screening
T2 construct: also called mu FAP

[2] = molecular target: T3, Human FAP ectodomain + poly-lys-tag + his6-tag (human, UniProt Q12884 27-760); experiment: as above
T3 construct: also called hu FAP

[3] = molecular target: T4, DPPIV expressed on HEK293 or CHO cells (Homo sapiens (Human), UniProt P27487 1-766); experiment: binding to DPPIV-expressing HEK293 or CHO cells
T4 construct: also called close homologue of FAP

[4] = molecular target: T2, Murine FAP ectodomain + poly-lys-tag + …; experiment: SPR (ProteOn XPR36), purified Fab, monovalent binding
[5] = molecular target: T3, Human FAP ectodomain + poly-lys-tag + …; experiment: as above
[6] = molecular target: T1, Human TNC-A2 + avi-tag + his6-tag; experiment: as above
Method: Selections were carried out against E. coli expressed human TNC A2 which was cloned upstream an avi-tag and 6×his-tag (see SEQ ID NO: 57 of Table 5). The antigen was biotinylated in vivo upon expression. Selections have been carried out in solution as described for the primary TNC A2 selections using decreasing concentrations of human TNC A2 ranging from 100 to 2 nM. After identification of affinity-matured clones by ELISA, secondary screenings were carried out using a ProteOn XPR36 biosensor (Biorad) and kinetic rate constants and affinities were determined analyzing affinity-purified Fab preparations on the same instrument.

binding result [1] | binding result [2] | binding result [3] | Kd [4] | Kd [5] | Kd [6] | Binder
binds | binds | – | – | – | – | 3F2 Fab (Fab, V domains shown, Fab fragment; also called clone 3F2) VH: not shown VL: EIVLTQSPGTLSLYPGERATLSCRASQSVTSSYLAWYQQKPGQAPRLLINVGSRRATGIPDRFSGSGSGTDFTLTISRLEPEDFAVYYCQQGIMLPPTFGQGTKVEIK
– | – | no binding | 0.009 nM | 0.2 nM | – | 28H1 Fab (Fab, V domains shown, also called clone 28H1) VH: EVQLLESGGGLVQPGGSLRLSCAASGFTFSSHAMSWVRQAPGKGLEWVSAIWASGEQYYADSVKGRFTISRDNSKNTLYLQMNSLRAEDTAVYYCAKGWLGNFDYWGQGTLVTVSS VL: EIVLTQSPGTLSLSPGERATLSCRASQSVSRSYLAWYQQKPGQAPRLLIIGASTRATGIPDRFSGSGSGTDFTLTISRLEPEDFAVYYCQQGQVIPPTFGQGTKVEIK
binds | binds | – | – | – | – | 4G8 Fab (Fab, V domains shown, Fab fragment; also called clone 4G8) VH: not shown VL: EIVLTQSPGTLSLSPGERATLSCRASQSVSRSYLAWYQQKPGQAPRLLIIGASTRATGIPDRFSGSGSGTDFTLTISRLEPEDFAVYYCQQGQVIPPTFGQGTKVEIK
– | – | no binding | 2.6 nM | 0.076 nM | – | 19G1 Fab (Fab, V domains shown, also called clone 19G1) VH: EVQLLESGGGLVQPGGSLRLSCAASGFTFSSYAMSWVRQAPGKGLEWVSAIISSGGLTYYADSVKGRFTISRDNSKNTLYLQMNSLRAEDTAVYYCAKGWFGGFNYWGQGTLVTVSS VL: EIVLTQSPGTLSLSPGERATLSCRASQSVTSSYLAWYQQKPGQAPRLLINVGSRRATGIPDRFSGSGSGTDFTLTISRLEPEDFAVYYCQQGIMLPPTFGQGTKVEIK
– | – | no binding | 8.3 nM | 0.619 nM | – | O2D7 Fab (Fab, V domains shown, also called clone O2D7) VH: not shown VL: EIVLTQSPGTLSLSPGERATLSCRASQSVTSSYLAWYQQKPGQAPRLLINVGSRRATGTPDRFSGSGSGTDFTLTISRLEPEDFAVYYCQQAIMLPPTFGQGTKVEIK
– | – | no binding | 3.8 nM | 0.301 nM | – | 16F8 Fab (Fab, V domains shown, also called clone 16F8) VH: not shown VL: EIVLTQSPGTLSLSPGERATLSCRASQSVTSSYLAWYQQKPGQAPRLLINVGSRRATGIPDRFSGSGSGTDFTLTISRLEPEDFAVYYCQQGIMLPPTFGQGTKVEIK
– | – | no binding | 3.3 nM | 0.157 nM | – | 4B9 Fab (Fab, V domains shown, also called clone 4B9) VH: EVQLLESGGGLVQPGGSLRLSCAASGFTFSSYAMSWVRQAPGKGLEWVSAIIGSGASTYYADSVKGRFTISRDNSKNTLYLQMNSLRAEDTAVYYCAKGWFGGFNYWGQGTLVTVSS VL: EIVLTQSPGTLSLSPGERATLSCRASQSVTSSYLAWYQQKPGQAPRLLINVGSRRATGIPDRFSGSGSGTDFTLTISRLEPEDFAVYYCQQGIMLPPTFGQGTKVEIK
– | – | no binding | 3.8 nM | 0.377 nM | – | 14B3 Fab (Fab, V domains shown, also called clone 14B3) VH: EVQLLESGGGLVQPGGSLRLSCAASGFTFSSYAMSWVRQAPGKGLEWVSAILASGAITYYADSVKGRFTISRDNSKNTLYLQMNSLRAEDTAVYYCAKGWFGGFNYWGQGTLVTVSS VL: EIVLTQSPGTLSLSPGERATLSCRASQSVTSSYLAWYQQKPGQAPRLLINVGSRRATGIPDRFSGSGSGTDFTLTISRLEPEDFAVYYCQQGIMLPPTFGQGTKVEIK
– | – | no binding | 3.4 nM | 0.193 nM | – | 16F1 Fab (Fab, V domains shown, also called clone 16F1) VH: EVQLLESGGGLVQPGGSLRLSCAASGFTFSSYAMSWVRQAPGKGLEWVSGIIGSGGITYYADSVKGRFTISRDNSKNTLYLQMNSLRAEDTAVYYCAKGWFGGFNYWGQGTLVTVSS VL: EIVLTQSPGTLSLSPGERATLSCRASQSVTSSYLAWYQQKPGQAPRLLINVGSRRATGIPDRFSGSGSGTDFTLTISRLEPEDFAVYYCQQGIMLPPTFGQGTKVEIK
– | – | no binding | 3.7 nM | 0.16 nM | – | O3C9 Fab (Fab, V domains shown, also called clone O3C9) VH: EVQLLESGGGLVQPGGSLRLSCAASGFTFSSFAMSWVRQSPGKGLEWVSAIIGSGSNTYYADSVKGRFTISRDNSKNTLYLQMNSLRAEDTAVYYCAKGWFGGFNYWGQGTLVTVSS VL: EIVLTQSPGTLSLSPGERATLSCRASQSVTSSYLAWYQQKPGQAPRLLINVGSRRATGIPDRFSGSGSGTDFTLTISRLEPEDFAVYYCQQGIMLPPTFGQGTKVEIK
– | – | no binding | 3.2 nM | 0.69 nM | – | 5B8 Fab (Fab, V domains shown, also called clone 5B8) VH: EVQLLESGGGLVQPGGSLRLSCAASGFTFSSYAMSWVRQAPGKGLEWVSAIWGGGRSTYYADSVKGRFTISRDNSKNTLYLQMNSLRAEDTAVYYCAKGWFGGFNYWGQGTLVTVSS VL: EIVLTQSPGTLSLSPGERATLSCRASQSVTSSYLAWYQQKPGQAPRLLINVGSRRATGIPDRFSGSGSGTDFTLTISRLEPEDFAVYYCQQGIMLPPTFGQGTKVEIK
– | – | no binding | 4.1 nM | 0.243 nM | – | 5F1 Fab (Fab, V domains shown, also called clone 5F1) VH: EVQLLESGGGLVQPGGSLRLSCAASGFTFSSYAMSWVRQAPGKGLEWVSAIISSGASTYYADSVKGRFTISRDNSKNTLYLQMNSLRAEDTAVYYCAKGWFGGFNYWGQGTLVTVSS VL: EIVLTQSPGTLSLSPGERATLSCRASQSVTSSYLAWYQQKPGQAPRLLINVGSRRATGIPDRFSGSGSGTDFTLTISRLEPEDFAVYYCQQGIMLPPTFGQGTKVEIK
– | – | no binding | 2.8 nM | 0.069 nM | – | 20G8 Fab (Fab, V domains shown, also called clone 20G8) VH: EVQLLESGGGLVQPGGSLRLSCAASGFTFSSYAMSWVRQAPGKGLEWVSAIIGSGSRTYYADSVKGRFTISRDNSKNTLYLQMNSLRAEDTAVYYCAKGWFGGFNYWGQGTLVTVSS VL: EIVLTQSPGTLSLSPGERATLSCRASQSVTSSYLAWYQQKPGQAPRLLINVGSRRATGIPDRFSGSGSGTDFTLTISRLEPEDFAVYYCQQGIMLPPTFGQGTKVEIK
– | – | – | – | – | 0.29 nM | 2B10_6A12 Fab (Fab, V domains shown, also called clone 2B10-6A12) VH: QVQLVQSGAEVKKPGSSVKVSCKASGGTFSSYAISWVRQAPGQGLEWMGVIIPILGTANYAQKFQGRVTITADKSTSTAYMELSSLRSEDTAVYYCARLYGYAYYGAFDYWGQGTTVTVSS VL: DIQMTQSPSSLSASVGDRVTITCRASQGIRNDLGWYQQKPGKAPKRLIYAASSLQSGVPSRFSGSGSGTEFTLTISSLQPEDFATYYCLQNGLQPATFGQGTKVEIK
– | – | – | – | – | 0.147 nM | 2B10_O7D8 Fab (Fab, V domains shown, also called clone 2B10_O7D8) VH: QVQLVQSGAEVKKPGSSVKVSCKASGGTFSSYAISWVRQAPGQGLEWMGGIIPIFGTANYAQKFQGRVTITADKSTSTAYMELSSLRSEDTAVYYCARLYGYAYYGAFDYWGQGTTVTVSS VL: DIQMTQSPSSLSASVGDRVTITCRASQSIRNVLGWYQQKPGKAPKRLIYDVSSLQSGVPSRFSGGGSGTEFTLTISSLQPEDFATYYCLQNGLQPATFGQGTKVEIK
– | – | – | – | – | 0.81 nM | 2B10_6H10 Fab (Fab, V domains shown, also called clone 2B10-6H10) VH: QVQLVQSGAEVKKPGSSVKVSCKASGGTFSSYAISWVRQAPGQGLEWMGGIIPIFGTANYAQKFQGRVTITADKSTSTAYMELSSLRSEDTAVYYCARLYGYAYYGAFDYWGQGTTVTVSS VL: DIQMTQSPSSLSASVGDRVTITCRASQGIRNVLGWYQQKPGKAPKRLIQAATSLQSGVPSRFSGGGSGTEFTLTISSLQPEDFATYYCLQNGLQPATFGQGTKVEIK
– | – | – | – | – | 0.191 nM | 2B10_C3B6 Fab (Fab, V domains shown, also called clone 2B10_C3B6) VH: QVQLVQSGAEVKKPGSSVKVSCKASGGTFSSYAISWVRQAPGQGLEWMGAIIPILGIANYAQKFQGRVTITADKSTSTAYMELSSLRSEDTAVYYCARLYGYAYYGAFDYWGQGTTVTVSS VL: DIQMTQSPSSLSASVGDRVTITCRASQGIRNDLGWYQQKPGKAPKRLIYAASSLQSGVPSRFSGSGSGTEFTLTISSLQPEDFATYYCLQNGLQPATFGQGTKVEIK
– | – | – | – | – | 0.056 nM | 2B10_O1F7 Fab (Fab, V domains shown, also called clone 2B10_O1F7) VH: QVQLVQSGAEVKKPGSSVKVSCKASGGTFSSYAISWVRQAPGQGLEWMGGIIPIFGTANYAQKFQGRVTITADKSTSTAYMELSSLRSEDTAVYYCARLYGYAYYGAFDYWGQGTTVTVSS VL: DIQMTQSPSSLSASVGDRVTITCRASQGIRNVLGWYQQKPGKAPKRLIYDASSLQSGVPSRFSGGGSGTEFTLTISSLQPEDFATYYCLQNGLQPATFGQGTKVEIK
– | – | – | – | – | 0.497 nM | 2B10_C3A6 Fab (Fab, V domains shown, also called clone 2B10_C3A6) VH: QVQLVQSGAEVKKPGSSVKVSCKASGGTFSSYAISWVRQAPGQGLEWMGGIIPIFGTANYAQKFQGRVTITADKSTSTAYMELSSLRSEDTAVYYCARLYGYAYYGAFDYWGQGTTVTVSS VL: DIQMTQSPSSLSASVGDRVTITCRASQGIRNVLGWYQQKPGKAPKRLIYDSSSLQSGVPSRFSGGGSGTEFTLTISSLQPEDFATYYCLQNGLQPATFGQGTKVEIK
